Laboratory results: patent US20130045195

How the values were obtained:
[1] = biological target: T1, celiac disease relevant peptide LGQQQPFPPQQPYPQPQPF
T1 chain: LGQQQPFPPQQPYPQPQPF

[2] = biological target: T2, celiac disease relevant peptide PQQPQQSFPQQQPPF
T2 chain: PQQPQQSFPQQQPPF

[3] = biological target: T3, celiac disease relevant peptide QLPQQPQQF
T3 chain: QLPQQPQQF

Measured: degradation of peptide analyzed by reverse phase liquid chromatography (50 µg/mL peptide, 25 µg/mL enzyme, 37 °C, pH 4.5, 1 hr)

B1: XP-972061 (proline specific protease, LOC660762, similar to prolylcarboxypeptidase / thymus-specific serine protease) (protein)
chain: RIFRNGRMVGGNLGEPKCNCKESSIKEVQEEWFTQNLDHFNPTDETTWKQRFYSNDQFFDPKNGGPVFLMIGGEGEASIKWMTQGAWVNYAEKFGALMFQLEHRYYGKSHPTDDLSTQNLKYLTSQQALADLATFITAMNEKYSLPPDVKWIAFGGSYPGSLAAWLRFKYPHLVHGAMSASGPLLAQVDFKDYFRVIKESLATHSDDCVTAVQQGVDQIGVLLKQEIGQANLNELFKLCDPVQNSINNEKDISNLYETIADDFAGVVQYNKDNRVGSPAGANITIDVVCDIMVNQTIGPPVNRLAKVNEVLLSAYDQKCLDYNYDKMINNLRNVSWDSEASEGGRQWTYQTCTEFGFYQTSDYEPQIFGDQFSVDFFIQQCTDIFGSIYDEDFLNSATERTNTYYGGLDIEVSNVVFVHGSIDPWHALGITKTIDEEAPAIYIEGTAHCANMYPPADTDLPQLKEAREQILNLIGTWLAQ
completely proteolyzed: all assays above
